Residue numbers refer to the chain shown, from its start. Names may count otherwise.
B1: OtDUBGEF (residues 548-759), His-tagged construct (domain or fragment)
chain: ERLVKKVTSNLETELKFFKGRLVQELMQIVKNENGRIDHTSKNWQESASVLLNSQEKGAVSLAEVERAVSKMTQKLRDQKVSEEEVVNIESKLKFERASLEAKLFDDNEIKELINKRIKEDALRAIPFLGSDSESFMEKISPFVKLPDDSYSLLKANDKHHPFQNILYSNALKFFADSSDIGYLNDDSLKNLTPENLNAFEQAVAADIDKLM
notes: source: E. coli BL21(DE3), purified (Ni-NTA, Superdex 75)
B2: GST-OtDUBGEF N590A/E593A (domain or fragment)
chain: B1 chain with N43A, E46A
notes: OtDUB (ORF OTT_1962), Orientia tsutsugamushi Ikeda isolate; also called switch II (N590A/E593A) mutant; source: E. coli Rosetta DE3, purified (glutathione resin)
B3: GST-OtDUBGEF E561A (domain or fragment)
chain: B1 chain with E14A
notes: OtDUB (ORF OTT_1962), Orientia tsutsugamushi Ikeda isolate; also called switch I (E561A) mutant; source: E. coli Rosetta DE3, purified (glutathione resin)
B4: GST-OtDUB C-terminal truncation (275-913) (domain or fragment)
chain: SAEVSSKEELYVPKINQVEESLEAQLKYINEHIASQLMQIVKNSNGEIDCNSSNFQEEVSSLLNSRSKETTSLATIEQNFNEIIQQLRKEKVNEERVSAIELQLKANRAVLEAKLSNTEDVKSLVNQKIKEETLQAIPFFGNAAERANFKKHLAHFVKLPDNSYSLLKQKEKRHPFCNIIGANAVKFFSPQSNAVYLNTSAYNQITSGNLKAFEAAVTTDINNLMLKEAAVTIDAVSPNKEAVESGKDLSKTDELAELKEVKSNLETELKILKERLVKKVTSNLETELKFFKGRLVQELMQIVKNENGRIDHTSKNWQESASVLLNSQEKGAVSLAEVERAVSKMTQKLRDQKVSEEEVVNIESKLKFERASLEAKLFDDNEIKELINKRIKEDALRAIPFLGSDSESFMEKISPFVKLPDDSYSLLKANDKHHPFQNILYSNALKFFADSSDIGYLNDDSLKNLTPENLNAFEQAVAADIDKLMSRDVTLNVSDLKSYVANSPNPDLIADYLALEWQIHTPGLKGLYDDLQASHQLQLNELENKHAKQLLSDLANLSKLPSMRGILPEFKDEFYNEIDKKPEERSVEYKNFINKCSELPDAMLQPAKCSAQALLEFNKYERDLNSFKQGVFCAIDNYK
notes: OtDUB (ORF OTT_1962), Orientia tsutsugamushi Ikeda isolate; pGEX6P1 construct; source: E. coli Rosetta DE3, purified (glutathione resin)
B5: Cdc42 (residues 1-177), recombinant (domain or fragment)
chain: not shown

Legend:
[1] = target: T1, Rac1 (residues 1-177), recombinant (human, UniProt P63000 1-177); test: ITC; conditions: both partners purified
[2] = target: T1, Rac1 (residues 1-177), recombinant; test: cell-based or functional assay
[3] = target: T1, Rac1 (residues 1-177), recombinant; test: pull-down; GST-tagged OtDUB fragments (20 μM) as bait and Rac1 (60 µM) as prey, 50 mM Tris-HCl pH 7.5, 150 mM NaCl, 0.1 mM TCEP, glutathione resin 1 h at 4°C; Coomassie; conditions: both partners purified
[4] = target: B1; test: ITC; conditions: both partners purified

Binder	binding result [3]	other results
B1	–	Kd [1]: ~5 µM; kcat/KM of BODIPY-GDP dissociation from Rac1 with increasing amounts of OtDUBGEF [2]: 260000 M⁻¹ s⁻¹
B2	binds	–
B3	binds	–
B4	binds	–
B5	–	Kd [4]: ~16 µM

From publication doi:10.1101/2020.06.04.133876 (bioRxiv, 2020)
